Experimental findings from US20220057408A1 are described below.

The target of this experiment is CD3 (Homo sapiens (Human)) (UniProt P07766). As to the kind of experiment: IHC on tissue (human tonsil), 1ug/mL primary antibody, detected with Goat Anti-rabbit-HRP/DAB; 6 ROIs, 3 tissues, 95% CI for the mean; P=0.000 against H4K4-E.

For “rabbit anti-CD3(SP162) antibody (unmodified)”, the Staining Intensity by ImageJ (mean) was determined as 62.
